Measurements taken from publication doi:10.1101/2020.08.19.257774 (bioRxiv, 2020).

B1: Synechocystis LPOR (enzyme, UniProt Q59987 1-322, looked up)
chain: MEQPMKPTVIITGASSGVGLYGAKALIDKGWHVIMACRNLDKTQKVADELGFPKDSYTIIKLDLGYLDSVRRFVAQFRELGRPLKALVCNAAVYFPLLDEPLWSADDYELSVATNHLGHFLLCNLLLEDLKACPDADKRLIILGTVTANSKELGGKIPIPAPPDLGNFEGFEAGFKKPIAMINNKKFKSGKAYKDSKLCNMLTTRELHRRFHQETGIVFNSLYPGCVADTPLFRNHYSLFRTIFPWFQKNVTKGYVSQELAGERVAMVVADDKFKDSGVHWSWGNRQQAGREAFVQELSEQGSDAQKAQRMWDLSEKLVGLV
B2: A. thaliana Light-dependent Protochlorophyllide OxidoReductase isoform B (AtPORB) (enzyme)
chain: QTAATSSPTVTKSVDGKKTLRKGNVVVTGASSGLGLATAKALAETGKWNVIMACRDFLKAERAAKSVGMPKDSYTVMHLDLASLDSVRQFVDNFRRTETPLDVLVCNAAVYFPTAKEPTYSAEGFELSVATNHLGHFLLARLLLDDLKKSDYPSKRLIIVGSITGNTNTLAGNVPPKANLGDLRGLAGGLNGLNSSAMIDGGDFDGAKAYKDSKVCNMLTMQEFHRRFHEETGVTFASLYPGCIASTGLFREHIPLFRALFPPFQKYITKGYVSETESGKRLAQVVSDPSLTKSGVYWSWNNASASFENQLSEEASDVEKARKVWEISEKLVGLA

Columns and labels:
negative stain EM = molecular target: the molecule itself; assay: negative stain EM
cryo-EM structure = molecular target: the molecule itself; assay: cryo-EM structure

Protein	binding result (negative stain EM)	binding result (cryo-EM structure)
B1	binds	
B2		binds
